Experimental findings from US10239925B2, “Peptides and combination of peptides for use in immunotherapy against ovarian cancer and other cancers” (IMMATICS BIOTECHNOLOGIES GMBH, priority 2015, dated 2019) are described below.

The target of this assay is HLA-A*02:01 (Homo sapiens, UniProt P04439, D140Y/D185E/D98H/E176V/E277Q/G131W/G231S/I119V/I121R/I166T/I218V/L300P/L318F/N151K/N90K/P208A/P217A/Q86G/Q94H/R138H/R169H/T345S). The assay can be described thus: MHC binding assay (UV-ligand exchange, anti-β2m ELISA, peptide exchange yield). The conditions noted are these: binding to HLA-A*02:01. In a few lines: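 Yield of stabilized complexes quantified via the β2m light chain in an ELISA (streptavidin capture, 100-fold diluted monomers, HRP anti-β2m 2 ug/ml at 37 °C, TMB, A450). The complexes come from UV-triggered replacement of a photocleavable ligand by the candidate peptide.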
For the substance “218 (SALEELVNV; listed as Homo sapiens) [compound 218]”, the “Peptide exchange (MHC class I binding score, peptide exchange yield)” value (“Peptide exchange” for short) was ““++” (>20% = ++)”.

For the substance “18 (YLVAKLVEV; listed as Homo sapiens) [compound 18]”, the “Peptide exchange” value is given as ““++” (>20% = ++)”.

“225 (SLLKVLPAL; listed as Homo sapiens) [compound 225]”: the “Peptide exchange” value is listed as ““+++” (>50 = +++)”.

For the substance “219 (KLSDIGITV; listed as Homo sapiens) [compound 219]”, the “Peptide exchange” value is on record as ““+++” (>50 = +++)”.

On to “206 (VLQEGKLQKLAQL; listed as Homo sapiens) [compound 206]”, for which the “Peptide exchange” value is listed as ““+++” (>50 = +++)”.

Take “439 (YLLQEIYGI; listed as Homo sapiens) [compound 439]”: the “Peptide exchange” value was ““+++” (>50 = +++)”.

Regarding “556 (FLTDLEDLTL; listed as Homo sapiens) [compound 556]”, the “Peptide exchange” value was ““+++” (>50 = +++)”.

In the case of “458 (SLIDKLYNI; listed as Homo sapiens) [compound 458]”, the “Peptide exchange” value is listed as ““++” (>20% = ++)”.

On to “366 (RLLDMGETDLML; listed as Homo sapiens) [compound 366]”, for which the “Peptide exchange” value is ““+++” (>50 = +++)”.

As to “167 (KVLEVTEEFGV; listed as Homo sapiens) [compound 167]”, the “Peptide exchange” value is ““+++” (>50 = +++)”.

“223 (ALLENIALYL; listed as Homo sapiens) [compound 223]”: the “Peptide exchange” value is reported as ““+++” (>50 = +++)”.

With “560 (ALWDIETGQQTTT; listed as Homo sapiens) [compound 560]”, the “Peptide exchange” value was ““+++” (>50 = +++)”.

As to “491 (GLNDRSDAV; listed as Homo sapiens) [compound 491]”, the “Peptide exchange” value was ““++” (>20% = ++)”.

Take “216 (NLWEDPYYL; listed as Homo sapiens) [compound 216]”: the “Peptide exchange” value is given as ““+++” (>50 = +++)”.

Regarding “282 (LLADVVPTT; listed as Homo sapiens) [compound 282]”, the “Peptide exchange” value is ““+++” (>50 = +++)”.

In the case of “214 (FLLDLDPLLL; listed as Homo sapiens) [compound 214]”, the “Peptide exchange” value is recorded as ““+++” (>50 = +++)”.

On to “379 (IMEGTLTRV; listed as Homo sapiens) [compound 379]”, for which the “Peptide exchange” value is on record as ““++” (>20% = ++)”.

Regarding “347 (SLFKHDPAAWEA; listed as Homo sapiens) [compound 347]”, the “Peptide exchange” value is ““++++” (>75% = ++++)”.

For the substance “521 (MLLTKLPTI; listed as Homo sapiens) [compound 521]”, the “Peptide exchange” value is listed as ““+++” (>50 = +++)”.

In the case of “302 (ALLQEGEVYSA; listed as Homo sapiens) [compound 302]”, the “Peptide exchange” value is reported as ““+++” (>50 = +++)”.

For the substance “285 (QLLHVGVTV; listed as Homo sapiens) [compound 285]”, the “Peptide exchange” value was ““+++” (>50 = +++)”.

“86 (NLIGKIENV; listed as Homo sapiens) [compound 86]”: the “Peptide exchange” value is listed as ““+++” (>50 = +++)”.

Turning to “474 (YLDPALELGPRNV; listed as Homo sapiens) [compound 474]”, the “Peptide exchange” value is ““+++” (>50 = +++)”.

As for “504 (GLSDGNPSL; listed as Homo sapiens) [compound 504]”, the “Peptide exchange” value is ““++” (>20% = ++)”.

As for “566 (VIADGGIQNV; listed as Homo sapiens) [compound 566]”, the “Peptide exchange” value is ““++” (>20% = ++)”.

In the case of “20 (RMIEYFIDV; listed as Homo sapiens) [compound 20]”, the “Peptide exchange” value was ““+++” (>50 = +++)”.

For the substance “88 (FLLVGDLMAV; listed as Homo sapiens) [compound 88]”, the “Peptide exchange” value was ““+++” (>50 = +++)”.

As for “447 (QLVPALAKV; listed as Homo sapiens) [compound 447]”, the “Peptide exchange” value is recorded as ““++” (>20% = ++)”.

Consider “340 (ALLSMTFPL; listed as Homo sapiens) [compound 340]”, for which the “Peptide exchange” value was ““++++” (>75% = ++++)”.

With “554 (LLMPSSEDLLL; listed as Homo sapiens) [compound 554]”, the “Peptide exchange” value is recorded as ““+++” (>50 = +++)”.

Turning to “538 (LLLAHIIAL; listed as Homo sapiens) [compound 538]”, the “Peptide exchange” value is recorded as ““++” (>20% = ++)”.

As for “179 (KVLNELYTV; listed as Homo sapiens) [compound 179]”, the “Peptide exchange” value is reported as ““+++” (>50 = +++)”.

As to “35 (KINDTIYEV; listed as Homo sapiens) [compound 35]”, the “Peptide exchange” value is given as ““+++” (>50 = +++)”.

Take “503 (SLNHFTHSV; listed as Homo sapiens) [compound 503]”: the “Peptide exchange” value was ““+++” (>50 = +++)”.

For the substance “597 (KLLEGQVIQL; listed as Homo sapiens) [compound 597]”, the “Peptide exchange” value was ““+++” (>50 = +++)”.

Turning to “204 (KIAENVEEV; listed as Homo sapiens) [compound 204]”, the “Peptide exchange” value is reported as ““++” (>20% = ++)”.

For the substance “461 (VMFRTPLASV; listed as Homo sapiens) [compound 461]”, the “Peptide exchange” value is recorded as ““++” (>20% = ++)”.

Turning to “102 (YLFESEGLVL; listed as Homo sapiens) [compound 102]”, the “Peptide exchange” value is given as ““+++” (>50 = +++)”.

For the substance “75 (GLLEVMVNL; listed as Homo sapiens) [compound 75]”, the “Peptide exchange” value is listed as ““+++” (>50 = +++)”.

For the substance “34 (ILVEADSLWVV; listed as Homo sapiens) [compound 34]”, the “Peptide exchange” value is recorded as ““+++” (>50 = +++)”.

In the case of “568 (TLYDIAHTPGV; listed as Homo sapiens) [compound 568]”, the “Peptide exchange” value is on record as ““++++” (>75% = ++++)”.

Turning to “67 (TLLAEALVTV; listed as Homo sapiens) [compound 67]”, the “Peptide exchange” value is on record as ““+++” (>50 = +++)”.

On to “515 (LLQELVLFL; listed as Homo sapiens) [compound 515]”, for which the “Peptide exchange” value is ““+++” (>50 = +++)”.

Turning to “494 (ALQPEPIKV; listed as Homo sapiens) [compound 494]”, the “Peptide exchange” value is on record as ““++” (>20% = ++)”.

For “408 (VLDDSIYLV; listed as Homo sapiens) [compound 408]”, the “Peptide exchange” value was ““++” (>20% = ++)”.

With “555 (YVLEGLKSV; listed as Homo sapiens) [compound 555]”, the “Peptide exchange” value is listed as ““+++” (>50 = +++)”.

On to “122 (FLLAEDDIYL; listed as Homo sapiens) [compound 122]”, for which the “Peptide exchange” value was ““+++” (>50 = +++)”.

With “55 (SLLDLETLSL; listed as Homo sapiens) [compound 55]”, the “Peptide exchange” value was ““++++” (>75% = ++++)”.

Take “513 (SLWPSPEQL; listed as Homo sapiens) [compound 513]”: the “Peptide exchange” value is on record as ““++” (>20% = ++)”.

With “583 (ILANDGVLLAA; listed as Homo sapiens) [compound 583]”, the “Peptide exchange” value is ““+++” (>50 = +++)”.

For the substance “557 (KLYDDMIRL; listed as Homo sapiens) [compound 557]”, the “Peptide exchange” value is listed as ““+++” (>50 = +++)”.

Regarding “238 (YLISFQTHI; listed as Homo sapiens) [compound 238]”, the “Peptide exchange” value was ““+++” (>50 = +++)”.

For “599 (YLLNDASLISV; listed as Homo sapiens) [compound 599]”, the “Peptide exchange” value is listed as ““+++” (>50 = +++)”.

In the case of “89 (YILPTETIYV; listed as Homo sapiens) [compound 89]”, the “Peptide exchange” value is given as ““++++” (>75% = ++++)”.

As for “296 (FMEGAIIYV; listed as Homo sapiens) [compound 296]”, the “Peptide exchange” value is given as ““+++” (>50 = +++)”.

As for “363 (KVLDVSDLESV; listed as Homo sapiens) [compound 363]”, the “Peptide exchange” value is on record as ““++” (>20% = ++)”.

Turning to “441 (ALLENPKMEL; listed as Homo sapiens) [compound 441]”, the “Peptide exchange” value is ““+++” (>50 = +++)”.

As to “398 (KLLEEDGTIITL; listed as Homo sapiens) [compound 398]”, the “Peptide exchange” value is ““++” (>20% = ++)”.

As for “453 (KLLEATSAV; listed as Homo sapiens) [compound 453]”, the “Peptide exchange” value is ““++” (>20% = ++)”.

With “393 (GLLDTQTSQVLTA; listed as Homo sapiens) [compound 393]”, the “Peptide exchange” value is ““++” (>20% = ++)”.

Consider “595 (VLLSIYPRV; listed as Homo sapiens) [compound 595]”, for which the “Peptide exchange” value is recorded as ““+++” (>50 = +++)”.
